Experimental data taken from patent US11319552B2, “Methods for improving transformation frequency” (SYNGENTA PARTICIPATIONS AG, priority 2016, dated 2022).

Experiments:
[1] = test system: immature embryos; assay: Kill curve, ammonium glufosinate concentration for selection, survival percentage; assay type: cell-based, maize; conditions: for % Survival: plants that rooted over immature embryos transformed
Protocol: The expression cassette of PAT variant type 3b (SEQ ID NO: 13) was introduced into a binary vector, now referred to as 23419. Binary vector 18857 (described in Table 2), which expresses cPAT-09, was used as a control. […] For vector 23419, 75-86 immature embryos were transformed using Agrobacteria similar to the method described in Example 4. Selection was performed using 10-80 mg/L of ammonium glufosinate (Ignite®). Following selection, plantlets were regenerated and then transferred to rooting media. The survival percentage (%) is shown as the number of plants that rooted over the number of immature embryos initially transformed.

[2] = test system: immature embryos; assay: Second selection experiment, transformation frequency with 40 mg/L ammonium glufosinate or 5 mg/L bialaphos; assay type: cell-based, maize
Protocol: 10 mg/L to 40 mg/L of ammonium glufosinate all had survivor transgenic plant candidates for the binary vector comprising PAT variant type 3b. […] A second experiment was performed using 40 mg/L ammonium glufosinate, or using the GS inhibitor bialaphos at 5 mg/L. For this experiment, following transformation the immature embryos were selected, plants were regenerated and rooted, and transgenic plants were identified so that transformation frequency could be calculated.

B1: cPAT-09: control PAT DNA sequence codon optimized to Arabidopsis thaliana (SEQ ID NO: 21); tested here in binary vector 18857 (nucleic acid)
DNA: ATGTCTCCGGAGAGGAGACCAGTTGAGATTAGGCCAGCTACAGCAGCTGATATGGCCGCGGTTTGTGATATCGTTAACCATTACATTGAGACGTCTACAGTGAACTTTAGGACAGAGCCACAAACACCACAAGAGTGGATTGATGATCTAGAGAGGTTGCAAGATAGATACCCTTGGTTGGTTGCTGAGGTTGAGGGTGTTGTGGCTGGTATTGCTTACGCTGGGCCCTGGAAGGCTAGGAACGCTTACGATTGGACAGTTGAGAGTACTGTTTACGTGTCACATAGGCATCAAAGGTTGGGCCTAGGCTCCACATTGTACACACATTTGCTTAAGTCTATGGAGGCGCAAGGTTTTAAGTCAGTGGTTGCTGTTATAGGCCTTCCAAACGATCCATCTGTTAGGTTGCATGAGGCTCTAGGATACACAGCGCGGGGTACACTGCGCGCAGCTGGATACAAGCATGGTGGATGGCATGATGTTGGTTTTTGGCAAAGGGATTTTGAGTTGCCAGCTCCTCCAAGGCCAGTGAGGCCAGTTACCCAGATCTGA
modifications: derived from Streptomyces viridochromogenes
In the case of B1, the “% Survival” value ([1]; 10 mg/L ammonium glufosinate) is reported as 1.3%, the “% Survival” value ([1]; 20 mg/L ammonium glufosinate) is reported as 1.3% and the “survival of selection (in words)” value ([1]; 40 mg/L ammonium glufosinate) is reported as “did not survive selection”. For the same molecule, the “% Survival” value ([1]; 40 mg/L ammonium glufosinate) was 0%, the “% Survival” value ([1]; 80 mg/L ammonium glufosinate) was 0% and the “Total # Events” value ([2]; 5 mg/L Bialaphos) was 7. The “Transformation frequency % (TF)” value ([2]; 5 mg/L Bialaphos) was 0.875%, the “Total # Events” value ([2]; 40 mg/L ammonium glufosinate) was 5 and the “Transformation frequency % (TF)” value ([2]; 40 mg/L ammonium glufosinate) was 0.625%.
